Results from patent US20110081661A1, “Modified photoproteins with increased affinity for calcium and enhanced bioluminescence and uses thereof” (Millipore Corporation, priority 2009, published 2011).

Experiments:
[1] = biological target: GIP (gastric inhibitory polypeptide) receptor (UniProt P48546); test: cell-based or functional assay
[2] = biological target: T1, H1 histamine receptor (Homo sapiens, UniProt P35367); test: GPCR-mediated versus total bioluminescence in U-2OS cells (FIG. 4); format: cell-based; conditions: 10 μM histamine vs Triton X-100 with 1 mM calcium
T1 construct: expressed in transfected cells; host or cells: U-2OS
T1 sequence (P35367 whole entry): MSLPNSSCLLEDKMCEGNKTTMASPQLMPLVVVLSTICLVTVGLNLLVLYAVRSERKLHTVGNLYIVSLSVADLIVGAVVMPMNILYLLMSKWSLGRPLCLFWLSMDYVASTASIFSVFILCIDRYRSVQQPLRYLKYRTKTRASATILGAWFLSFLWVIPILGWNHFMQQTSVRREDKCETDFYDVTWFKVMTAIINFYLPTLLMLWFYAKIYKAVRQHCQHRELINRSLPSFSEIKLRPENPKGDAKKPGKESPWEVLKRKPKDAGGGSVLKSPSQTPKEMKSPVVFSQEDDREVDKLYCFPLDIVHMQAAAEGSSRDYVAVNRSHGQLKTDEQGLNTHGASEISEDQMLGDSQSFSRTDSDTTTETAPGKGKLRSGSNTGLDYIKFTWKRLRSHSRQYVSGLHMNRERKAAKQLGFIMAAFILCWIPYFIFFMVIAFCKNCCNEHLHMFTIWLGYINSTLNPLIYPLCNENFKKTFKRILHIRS
Description: In another experiment, the ability of the various photoproteins to detect calcium flux in live cells was assessed by adding varying concentrations of histamine to cells in order to activate the H1 histamine receptor followed by measurement of bioluminescence of the various photoproteins. U-2OS cells were transfected with a cDNA encoding H1 histamine receptor along with a cDNA encoding either a wild-type photoprotein or a modified photoprotein according to the invention, as described above in Example 2, except that Lipofectamine-2000 (INVITROGEN) was used as the transfection reagent. On the second day, the cells were trypsinized, counted, and plated in a white tissue-culture treated 96-well plate (COSTAR) at a density of about 50,000 cells/well in growth media consisting of DMEM containing 10% fetal bovine serum, non-essential amino acids, HEPES and penicillin/streptomycin. On the third day, the medium was removed and cells were washed once with 200 μl/well of HBSS/HEPES (containing Ca^2+). Cells were subsequently incubated with 5 μM coelenterazine in HBSS/HEPES (containing Ca^2+) in a volume of 200 μl/well, for 3-4 hours at room temperature in the dark. After incubation, the coelenterazine solution was removed and cells were washed and replaced with HBSS/HEPES buffer containing both Ca^2+ and Mg^2+. 50 μl/well of histamine at varying concentrations in HBSS/HEPES containing both Ca^2+ and Mg^2+ was added to the cells and total bioluminescence was measured at 20 seconds using a Victor2 luminometer.
In an exemplary experiment, U-2OS cells were transfected, plated and loaded with coelenterazine as described in Example 3. Luminescence induced by buffer alone or by 10 μM histamine was measured also as described in Example 3. Additionally, luminescence induced by addition of Triton X-100 in the presence of 1 mM calcium was also determined in order to assess the total amount of active photoprotein detectable using saturating calcium concentrations in cells.

[3] = biological target: T2, GIP Receptor (Homo sapiens, UniProt P48546); test: GIP receptor-mediated bioluminescence in HEK293T cells with chimeric promiscuous G protein (FIG. 5, Table II); format: cell-based; conditions: for Max signal with GIP (RLU × 10^−5) / EC50: HEK293T cells, GIP Receptor + promiscuous G protein; for EC50: luminescence vs GIP concentration; for % GPCR/total: signal induced by maximal GIP (1 μM) as percentage of signal induced by Triton X-100 with 1 mM Ca^2+; for Signal: background with GIP: signal induced by maximal GIP (1 μM) divided by signal induced by buffer alone
T2 construct: host or cells: HEK293T
T2 sequence (P48546 22-466): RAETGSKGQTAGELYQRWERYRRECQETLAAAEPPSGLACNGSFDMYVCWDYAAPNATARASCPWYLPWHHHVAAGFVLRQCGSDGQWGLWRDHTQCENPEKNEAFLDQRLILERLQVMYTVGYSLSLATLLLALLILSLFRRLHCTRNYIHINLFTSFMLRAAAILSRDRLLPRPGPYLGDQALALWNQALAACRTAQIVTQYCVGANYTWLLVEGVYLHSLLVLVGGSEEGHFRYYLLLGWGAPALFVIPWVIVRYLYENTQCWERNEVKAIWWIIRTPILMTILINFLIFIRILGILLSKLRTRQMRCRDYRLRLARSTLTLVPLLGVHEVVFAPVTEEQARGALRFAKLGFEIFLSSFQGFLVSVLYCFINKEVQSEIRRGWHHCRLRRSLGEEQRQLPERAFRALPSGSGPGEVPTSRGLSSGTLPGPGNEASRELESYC
Description: However, coexpression of GIP receptor with a chimeric G protein containing sequences from Gαs and Gαq enable the GIP receptor to stimulate calcium flux.
The results of the dose response curve to varying concentrations of GIP with a subset of the photoproteins are summarized in FIG. 5.
(§1) Signal to background ratio was calculated as the signal induced by maximal GIP (1 μM) divided by the signal induced by buffer alone. The EC50 value for calcium was determined as described above for FIG. 2 for mitochondrially targeted photoproteins transfected into HEK293T cells in the absence of a cotransfected GPCR or G protein. Affinity for calcium was correlated with the properties of the amino acid side chain at residue 168 of Clytin.
The EC50 value for receptor-mediated calcium flux induced by the ligand was determined by plotting luminescence (Y-axis) versus ligand concentration applied to the cells (X-axis), and applying a sigmoidal dose-response curve-fitting algorithm (GraphPad Prism). GPCR-mediated signals of the various modified forms of Clytin having an amino acid substitution at position 168 were also related to the nature of the side chain. In addition, the subcellular location of the photoproteins (cytosolic vs mitochondrial) appeared to have an effect on GPCR-mediated signals. […] All of the other mitochondrially targeted mutants except for Clytin K168R and wild-type Clytin yielded results that were in the range of those observed for wt-Aequorin.

[4] = Calcium EC50 of mitochondrially targeted photoproteins in HEK293T cells without cotransfected GPCR or G protein (Table II); format: cell-based; conditions: no cotransfected GPCR or G protein
Text: In an exemplary experiment, HEK293T cells (ATCC-CRL-11268) were transiently co-transfected with 2 μgs of each of pcDNA3.1-H1 (containing the cDNA encoding the H1 histamine receptor) and pcDNA3.1 containing the cDNAs encoding wild type mitochondrial Clytin (referred to as mt-Clytin), modified mitochondrial Clytin having a lysine to aspartic acid mutation at position 168 (referred to as mt-Clytin K168D), modified mitochondrial Clytin having a lysine to glutamic acid mutation at position 168 (referred to as mt-Clytin K168E), wild-type mitochondrial Obelin (referred to as mt-Obelin) or wild type mitochondrial Aequorin (referred to as mt-Aequorin) using the Targefect-293 reagent (TARGETING SYSTEMS). 48 hours later, the cells were detached using Accutase (MILLIPORE), centrifuged, and resuspended in […] in FreeStyle293 media (INVITROGEN), for incubation for 3-4 hours at room temperature in the dark. After incubation, the cells were centrifuged and resuspended in HBSS/HEPES buffer without Ca^2+ at a density of 1×10^6 cells/ml. Next, 100 μl/well of cell suspension for each transfection were added by the use of a Victor2 luminometer plate reader (WALLAC, […]), to a 96-well plate containing 50 μL/well Triton X-100 in MOPS/KCl buffer containing 10 mM EGTA and a series of Ca^2+ concentrations, such that free calcium concentrations ranged from 17 nM to 39.6 μM, followed by for measurement of total bioluminescence at 20 seconds.
as §1

GIP (gastric inhibitory polypeptide) ligand (from UniProt P09681 52-93)
EC50 for GIP (nM); receptor-mediated calcium flux luminescence in HEK293T cells, reporter Cyto-aequorin [1]: 6.67 nM | EC50 for GIP (nM); receptor-mediated calcium flux luminescence in HEK293T cells, reporter Cyto-clytin K168D [1]: 4.01 nM | EC50 for GIP (nM); receptor-mediated calcium flux luminescence in HEK293T cells, reporter Cyto-clytin K168E [1]: 7.9 nM | EC50 for GIP (nM); receptor-mediated calcium flux luminescence in HEK293T cells, reporter Cyto-clytin wt [1]: 9.67 nM | EC50 for GIP (nM); receptor-mediated calcium flux luminescence in HEK293T cells, reporter Cyto-obelin [1]: 9.86 nM | EC50 for GIP (nM); receptor-mediated calcium flux luminescence in HEK293T cells, reporter Mt-aequorin [1]: 11.3 nM | EC50 for GIP (nM); receptor-mediated calcium flux luminescence in HEK293T cells, reporter Mt-clytin K168D [1]: 9.1 nM | EC50 for GIP (nM); receptor-mediated calcium flux luminescence in HEK293T cells, reporter Mt-clytin K168E [1]: 21.6 nM | EC50 for GIP (nM); receptor-mediated calcium flux luminescence in HEK293T cells, reporter Mt-clytin K168G [1]: 15.1 nM | EC50 for GIP (nM); receptor-mediated calcium flux luminescence in HEK293T cells, reporter Mt-clytin K168H [1]: 19.2 nM | EC50 for GIP (nM); receptor-mediated calcium flux luminescence in HEK293T cells, reporter Mt-clytin K168N [1]: 21 nM | EC50 for GIP (nM); receptor-mediated calcium flux luminescence in HEK293T cells, reporter Mt-clytin K168Q [1]: 17.4 nM | EC50 for GIP (nM); receptor-mediated calcium flux luminescence in HEK293T cells, reporter Mt-clytin K168R [1]: 29.1 nM | EC50 for GIP (nM); receptor-mediated calcium flux luminescence in HEK293T cells, reporter Mt-clytin K168S [1]: 15.4 nM | EC50 for GIP (nM); receptor-mediated calcium flux luminescence in HEK293T cells, reporter Mt-clytin K168T [1]: 13.4 nM | EC50 for GIP (nM); receptor-mediated calcium flux luminescence in HEK293T cells, reporter Mt-clytin K168V [1]: 16.8 nM | EC50 for GIP (nM); receptor-mediated calcium flux luminescence in HEK293T cells, reporter Mt-clytin K168Y [1]: 16.4 nM | EC50 for GIP (nM); receptor-mediated calcium flux luminescence in HEK293T cells, reporter Mt-clytin wt [1]: 12.9 nM | EC50 for GIP (nM); receptor-mediated calcium flux luminescence in HEK293T cells, reporter Mt-obelin [1]: 13.7 nM

B1: Cyto-clytin wt: Wild type Clytin (wt-Clytin) amino acid sequence, SEQ ID NO:1; cytosolic (protein, listed as Clytia gregaria)
chain: MADTASKYAVKLRPNFDNPKWVNRHKFMFNFLDINGDGKITLDEIVSKASDDICAKLGATPEQTKRHQDAVEAFFKKIGMDYGKEVEFPAFVDGWKELANYDLKLWSQNKKSLIRDWGEAVFDIFDKDGSGSISLDEWKAYGRISGICSSDEDAEKTFKHCDLDNSGKLDVDEMTRQHLGFWYTLDPNADGLYGNFVP
GPCR-mediated signal as % of the total signal [2]: ~3% | Max signal with GIP (RLU × 10^−5) [3]: 0.2 RLU × 10^−5 | EC50 [3]: 9.67 nM | % GPCR/total [3]: 0.3% | Signal: background with GIP [3]: 7.0

B2: Mt-clytin K168V: Mitochondrial K168V modified Clytin, SEQ ID NO:26 (protein)
chain: MSVLTPLLLRGLTGSARRLPVPRAKIHSLPPEGKLRPNFDNPKWVNRHKFMFNFLDINGDGKITLDEIVSKASDDICAKLGATPEQTKRHQDAVEAFFKKIGMDYGKEVEFPAFVDGWKELANYDLKLWSQNKKSLIRDWGEAVFDIFDKDGSGSISLDEWKAYGRISGICSSDEDAEKTFKHCDLDNSGVLDVDEMTRQHLGFWYTLDPNADGLYGNFVP
EC50 [4]: 389 nM | Max signal with GIP (RLU × 10^−5) [3]: 3.60 RLU × 10^−5 | EC50 [3]: 16.8 nM | % GPCR/total [3]: 18.5% | Signal: background with GIP [3]: 158.0

B3: Mt-clytin K168Y: Mitochondrial K168Y modified Clytin, SEQ ID NO:28 (protein)
chain: MSVLTPLLLRGLTGSARRLPVPRAKIHSLPPEGKLRPNFDNPKWVNRHKFMFNFLDINGDGKITLDEIVSKASDDICAKLGATPEQTKRHQDAVEAFFKKIGMDYGKEVEFPAFVDGWKELANYDLKLWSQNKKSLIRDWGEAVFDIFDKDGSGSISLDEWKAYGRISGICSSDEDAEKTFKHCDLDNSGYLDVDEMTRQHLGFWYTLDPNADGLYGNFVP
EC50 [4]: 284 nM | Max signal with GIP (RLU × 10^−5) [3]: 2.89 RLU × 10^−5 | EC50 [3]: 16.4 nM | % GPCR/total [3]: 18.5% | Signal: background with GIP [3]: 112.8

B4: Mt-clytin K168H: Mitochondrial K168H modified Clytin, SEQ ID NO:14 (protein)
chain: MSVLTPLLLRGLTGSARRLPVPRAKIHSLPPEGKLRPNFDNPKWVNRHKFMFNFLDINGDGKITLDEIVSKASDDICAKLGATPEQTKRHQDAVEAFFKKIGMDYGKEVEFPAFVDGWKELANYDLKLWSQNKKSLIRDWGEAVFDIFDKDGSGSISLDEWKAYGRISGICSSDEDAEKTFKHCDLDNSGHLDVDEMTRQHLGFWYTLDPNADGLYGNFVP
EC50 [4]: 459 nM | Max signal with GIP (RLU × 10^−5) [3]: 4.98 RLU × 10^−5 | EC50 [3]: 19.2 nM | % GPCR/total [3]: 14.9% | Signal: background with GIP [3]: 148.3

B5: Mt-clytin K168R: Mitochondrial K168R modified Clytin, SEQ ID NO:30 (protein)
chain: MSVLTPLLLRGLTGSARRLPVPRAKIHSLPPEGKLRPNFDNPKWVNRHKFMFNFLDINGDGKITLDEIVSKASDDICAKLGATPEQTKRHQDAVEAFFKKIGMDYGKEVEFPAFVDGWKELANYDLKLWSQNKKSLIRDWGEAVFDIFDKDGSGSISLDEWKAYGRISGICSSDEDAEKTFKHCDLDNSGRLDVDEMTRQHLGFWYTLDPNADGLYGNFVP
EC50 [4]: 581 nM | Max signal with GIP (RLU × 10^−5) [3]: 1.89 RLU × 10^−5 | EC50 [3]: 29.1 nM | % GPCR/total [3]: 3.3% | Signal: background with GIP [3]: 86.8

B6: Mt-obelin: Mitochondrial Wild-type Obelin (mt-Obelin), SEQ ID NO:7 (protein, listed as Obelia longissima)
chain: MSVLTPLLLRGLTGSARRLPVPRAKIHSLPPEGKLMSSKYAVKLKTDFDNPRWIKRHKHMFDFLDINGNGKITLDEIVSKASDDICAKLEATPEQTKRHQVCVEAFFRGCGMEYGKEIAFPQFLDGWKQLATSELKKWARNEPTLIREWGDAVFDIFDKDGSGTITLDEWKAYGKISGISPSQEDCEATFRHCDLDNSGDLDVDEMTRQHLGFWYTLDPEADGLYGNGVP
EC50 [4]: 373 nM | Max signal with GIP (RLU × 10^−5) [3]: 3.66 RLU × 10^−5 | EC50 [3]: 13.7 nM | % GPCR/total [3]: 116% | Signal: background with GIP [3]: 172.5
